Results: US20190099470

Target: T1, Mouse MAVS, endogenous, on mitochondria of wild-type MEFs and BMDCs (UniProt Q8VCF0)
T1 sequence: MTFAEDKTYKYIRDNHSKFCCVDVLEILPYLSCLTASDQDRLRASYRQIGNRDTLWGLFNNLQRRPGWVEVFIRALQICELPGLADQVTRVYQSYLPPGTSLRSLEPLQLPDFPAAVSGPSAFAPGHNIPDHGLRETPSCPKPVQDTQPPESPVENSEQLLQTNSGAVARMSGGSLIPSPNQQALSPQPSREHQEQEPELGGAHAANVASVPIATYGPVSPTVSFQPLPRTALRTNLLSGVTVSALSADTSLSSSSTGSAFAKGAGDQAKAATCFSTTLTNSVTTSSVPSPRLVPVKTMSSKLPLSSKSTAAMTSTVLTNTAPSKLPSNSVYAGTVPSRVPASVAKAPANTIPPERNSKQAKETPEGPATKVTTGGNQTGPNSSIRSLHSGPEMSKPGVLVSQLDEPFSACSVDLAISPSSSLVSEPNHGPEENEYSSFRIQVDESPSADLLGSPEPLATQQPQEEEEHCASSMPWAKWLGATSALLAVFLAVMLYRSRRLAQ

Coxsackievirus B3 (CVB3) 3C^pro protease
MAVS cleavage in CVB3-infected MEFs (immunoblotting), 3 h post-infection: the CVB3 3C^pro protease had produced only a small amount of cleaved MAVS | MAVS cleavage in CVB3-infected MEFs (immunoblotting), 24 h post-infection: CVB3 3C^pro had significantly cleaved MAVS
